The values below come from publication PMC2647295.

In this data set the target is MUC1-5TR (unglycosylated, five MUC1 tandem repeats) (UniProt P15941 126-225). Kind of data set: SPR.
Chain of MUC1-5TR (unglycosylated, five MUC1 tandem repeats) (P15941 126-225): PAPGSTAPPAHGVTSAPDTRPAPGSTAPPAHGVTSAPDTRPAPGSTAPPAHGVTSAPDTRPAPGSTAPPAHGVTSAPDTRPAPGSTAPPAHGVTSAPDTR
The molecule TACTGCATGCACACCACTTCAACTA (ssDNA) [5TR4] registered a Kd of 69 nM.

Regarding GGCTATAGCACATGGGTAAAACGAC (ssDNA) [5TR2], the Kd was 85.2 nM.

Turning to GAAGTGAAAATGACAGAACACAACA (ssDNA) [5TR1], binding was characterised by a dissociation constant (Kd) of 21 nM.

Consider CAAACAATCAAACAGCAGTGGGGTG (ssDNA) [5TR3], for which the Kd was 83 nM.
